Binding signal data for one sequence are collected here from paper PMC5934816.

In this data set the target is mLDH, mammalian lactate dehydrogenase (bovine) (UniProt P19858). Description: ELONA. The settings on record: ELONA: 500 ng immobilized protein; aptamer in HMCKN (2 mM HEPES, 0.2 mM MgCl2, 0.2 mM CaCl2, 0.2 mM KCl, 15 mM NaCl, pH 7.4), 2 h, room temperature; washes ….

Take “GCCTGTTGTGAGCCTCCTAACCAGCTCGTAGAAAAAAAAAGATATTGCTTCAATTATCTCCTCGCGTTCAATTAACCCAGCATGCTTATTCTTGTCTCCC [rLDH 4]”: the binding signal stood at 0.053 OD450.
